# PMC10397247
# T1: 4H570-bN
# T1 chain: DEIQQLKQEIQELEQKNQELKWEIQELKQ
# T2: 4H717-bH
# T2 chain: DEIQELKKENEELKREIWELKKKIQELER
# T3: 4H3926-bN
# T3 chain: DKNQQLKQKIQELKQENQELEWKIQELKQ
# T4: 4H591-bN
# T4 chain: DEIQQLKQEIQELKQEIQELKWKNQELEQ
# T5: 4H906-bN
# T5 chain: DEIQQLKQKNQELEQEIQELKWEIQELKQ
# T6: 4H3298-bN
# T6 chain: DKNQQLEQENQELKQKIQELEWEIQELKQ
# T7: 4H3628-bN
# T7 chain: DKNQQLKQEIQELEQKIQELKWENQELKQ
# T8: 4H3497-bN
# T8 chain: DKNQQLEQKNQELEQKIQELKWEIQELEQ
# T9: 4H3462-bN
# T9 chain: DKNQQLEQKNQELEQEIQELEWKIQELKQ
# T10: 4H3613-bN
# T10 chain: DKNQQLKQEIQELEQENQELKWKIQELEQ
# T11: 4H3974-bN
# T11 chain: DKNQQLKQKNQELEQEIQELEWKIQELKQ
# T12: 4H3175-bN
# T12 chain: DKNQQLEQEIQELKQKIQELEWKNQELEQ
# T13: 4H3858-bN
# T13 chain: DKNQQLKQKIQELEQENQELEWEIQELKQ
# T14: 4H3162-bN
# T14 chain: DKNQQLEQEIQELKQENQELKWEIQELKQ
# T15: 4H1985-bN
# T15 chain: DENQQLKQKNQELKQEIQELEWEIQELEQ
# T16: 4H2697-bN
# T16 chain: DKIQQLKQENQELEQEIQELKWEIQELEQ
# T17: 4H953-bA
# T17 chain: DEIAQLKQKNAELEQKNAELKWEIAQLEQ
# T18: 4H3817-bN
# T18 chain: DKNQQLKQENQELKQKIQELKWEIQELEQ
# T19: 4H3277-bN
# T19 chain: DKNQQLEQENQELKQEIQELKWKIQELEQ
# T20: 4H1899-bN
# T20 chain: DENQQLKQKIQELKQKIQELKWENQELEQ
# T21: 4H850-bN
# T21 chain: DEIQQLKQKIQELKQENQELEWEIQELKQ
# T22: 4H626-bN
# T22 chain: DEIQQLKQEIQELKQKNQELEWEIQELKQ
# T23: Q8-AA
# T23 chain: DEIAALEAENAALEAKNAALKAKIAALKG
# T24: 4H3112-bH
# T24 chain: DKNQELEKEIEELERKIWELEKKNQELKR
# T25: 4H2702-bH
# T25 chain: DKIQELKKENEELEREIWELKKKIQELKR
# T26: 4H780-bH
# T26 chain: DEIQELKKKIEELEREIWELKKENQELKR
# T27: 4H754-bH
# T27 chain: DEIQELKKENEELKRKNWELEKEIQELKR
# T28: 4H918-bH
# T28 chain: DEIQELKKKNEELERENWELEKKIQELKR
# T29: 4H4073-bH
# T29 chain: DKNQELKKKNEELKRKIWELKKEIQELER
# T30: 4H2627-bH
# T30 chain: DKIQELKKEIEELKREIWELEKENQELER
# T31: 4H683-bH
# T31 chain: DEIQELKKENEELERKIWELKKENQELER
# T32: 4H3427-bH
# T32 chain: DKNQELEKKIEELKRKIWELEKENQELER
# T33: 4H953-bH
# T33 chain: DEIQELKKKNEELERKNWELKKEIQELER
# T34: 4H575-bH
# T34 chain: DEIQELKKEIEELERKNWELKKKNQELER
# T35: 4H968-bH
# T35 chain: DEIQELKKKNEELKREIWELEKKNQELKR
# T36: 4H855-bH
# T36 chain: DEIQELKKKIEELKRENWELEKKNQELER
# T37: 4H346-bH
# T37 chain: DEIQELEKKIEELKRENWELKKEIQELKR
# T38: 4H3010-bH
# T38 chain: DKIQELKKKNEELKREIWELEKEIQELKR
# T39: 4H457-bH
# T39 chain: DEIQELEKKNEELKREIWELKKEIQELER
# T40: 4H2673-bH
# T40 chain: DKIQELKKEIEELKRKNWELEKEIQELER
# T41: 4H797-bH
# T41 chain: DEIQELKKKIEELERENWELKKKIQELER
# T42: 4H3926-bH
# T42 chain: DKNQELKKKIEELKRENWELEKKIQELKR
# Key:
# 4H570-bN = target: T1, 4H570-bN; assay: two-hybrid library CCNG1;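 also: natural log of median RNA to DNA barcode read ratio; higher means stronger binding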
# 4H717-bH = target: T2, 4H717-bH; assay: two-hybrid library CCNG1;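 also: natural log of median RNA to DNA barcode read ratio; higher means stronger binding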
# 4H3926-bN = target: T3, 4H3926-bN; assay: two-hybrid library CCNG1;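 also: natural log of median RNA to DNA barcode read ratio; higher means stronger binding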
# 4H591-bN = target: T4, 4H591-bN; assay: two-hybrid library CCNG1;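 also: natural log of median RNA to DNA barcode read ratio; higher means stronger binding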
# 4H906-bN = target: T5, 4H906-bN; assay: two-hybrid library CCNG1;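 also: natural log of median RNA to DNA barcode read ratio; higher means stronger binding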
# 4H3298-bN = target: T6, 4H3298-bN; assay: two-hybrid library CCNG1;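 also: natural log of median RNA to DNA barcode read ratio; higher means stronger binding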
# 4H3628-bN = target: T7, 4H3628-bN; assay: two-hybrid library CCNG1
# 4H3497-bN = target: T8, 4H3497-bN; assay: two-hybrid library CCNG1
# 4H3462-bN = target: T9, 4H3462-bN; assay: two-hybrid library CCNG1
# 4H3613-bN = target: T10, 4H3613-bN; assay: two-hybrid library CCNG1
# 4H3974-bN = target: T11, 4H3974-bN; assay: two-hybrid library CCNG1
# 4H3175-bN = target: T12, 4H3175-bN; assay: two-hybrid library CCNG1
# 4H3858-bN = target: T13, 4H3858-bN; assay: two-hybrid library CCNG1
# 4H3162-bN = target: T14, 4H3162-bN; assay: two-hybrid library CCNG1
# 4H1985-bN = target: T15, 4H1985-bN; assay: two-hybrid library CCNG1
# 4H2697-bN = target: T16, 4H2697-bN; assay: two-hybrid library CCNG1
# 4H953-bA = target: T17, 4H953-bA; assay: two-hybrid library CCNG1
# 4H3817-bN = target: T18, 4H3817-bN; assay: two-hybrid library CCNG1
# 4H3277-bN = target: T19, 4H3277-bN; assay: two-hybrid library CCNG1
# 4H1899-bN = target: T20, 4H1899-bN; assay: two-hybrid library CCNG1
# 4H850-bN = target: T21, 4H850-bN; assay: two-hybrid library CCNG1
# 4H626-bN = target: T22, 4H626-bN; assay: two-hybrid library CCNG1
# Q8-AA = target: T23, Q8-AA; assay: two-hybrid library CCmax
# 4H3112-bH = target: T24, 4H3112-bH; assay: two-hybrid library CCNG1
# 4H2702-bH = target: T25, 4H2702-bH; assay: two-hybrid library CCNG1
# 4H780-bH = target: T26, 4H780-bH; assay: two-hybrid library CCNG1
# 4H754-bH = target: T27, 4H754-bH; assay: two-hybrid library CCNG1
# 4H918-bH = target: T28, 4H918-bH; assay: two-hybrid library CCNG1
# 4H4073-bH = target: T29, 4H4073-bH; assay: two-hybrid library CCNG1
# 4H2627-bH = target: T30, 4H2627-bH; assay: two-hybrid library CCNG1
# 4H683-bH = target: T31, 4H683-bH; assay: two-hybrid library CCNG1
# 4H3427-bH = target: T32, 4H3427-bH; assay: two-hybrid library CCNG1
# 4H953-bH = target: T33, 4H953-bH; assay: two-hybrid library CCNG1
# 4H575-bH = target: T34, 4H575-bH; assay: two-hybrid library CCNG1
# 4H968-bH = target: T35, 4H968-bH; assay: two-hybrid library CCNG1
# 4H855-bH = target: T36, 4H855-bH; assay: two-hybrid library CCNG1
# 4H346-bH = target: T37, 4H346-bH; assay: two-hybrid library CCNG1
# 4H3010-bH = target: T38, 4H3010-bH; assay: two-hybrid library CCNG1
# 4H457-bH = target: T39, 4H457-bH; assay: two-hybrid library CCNG1
# 4H2673-bH = target: T40, 4H2673-bH; assay: two-hybrid library CCNG1
# 4H797-bH = target: T41, 4H797-bH; assay: two-hybrid library CCNG1
# 4H3926-bH = target: T42, 4H3926-bH; assay: two-hybrid library CCNG1
binder,measurement,setting,value
DENQQLKQKIQELKQKIQELKWENQELEQ [4H1899-bN],interaction score,4H570-bN,-1
same,interaction score,4H717-bH,-0.282
same,interaction score,4H3926-bN,-0.429
same,interaction score,4H591-bN,-1.42
same,interaction score,4H906-bN,-0.654
same,interaction score,4H3298-bN,-0.744
same,interaction score,4H3628-bN,0.469
same,interaction score,4H3497-bN,-0.658
same,interaction score,4H3462-bN,-2.27
same,interaction score,4H3613-bN,0.0619
same,interaction score,4H3974-bN,-0.336
same,interaction score,4H3175-bN,-0.0673
same,interaction score,4H3858-bN,-0.633
same,interaction score,4H3162-bN,-0.75
same,interaction score,4H1985-bN,-0.785
same,interaction score,4H2697-bN,-1.18
same,interaction score,4H953-bA,-1.81
same,interaction score,4H3817-bN,-0.969
same,interaction score,4H3277-bN,-1.21
same,interaction score,4H1899-bN,-1.24
same,interaction score,4H850-bN,-1.55
same,interaction score,4H626-bN,-0.642
DEIAALEAENAALEAKNAALKAKIAALKG [Q8-AA],interaction score,Q8-AA,-1.19
DKIQELKKEIEELKREIWELEKENQELER [4H2627-bH],interaction score,4H3112-bH,-0.225
same,interaction score,4H2702-bH,0.512
same,interaction score,4H780-bH,-0.424
same,interaction score,4H754-bH,-1.94
same,interaction score,4H918-bH,-0.493
same,interaction score,4H4073-bH,1.38
same,interaction score,4H2627-bH,1.3
same,interaction score,4H683-bH,0.431
same,interaction score,4H3427-bH,1.18
same,interaction score,4H953-bH,-1.4
same,interaction score,4H575-bH,-0.0013
same,interaction score,4H968-bH,0.133
same,interaction score,4H855-bH,-0.425
same,interaction score,4H346-bH,-0.309
same,interaction score,4H3010-bH,0.547
same,interaction score,4H457-bH,-1.91
same,interaction score,4H2673-bH,0.273
same,interaction score,4H797-bH,-0.67
same,interaction score,4H3926-bH,-0.251
